Experiments:
[1] = Enzyme kinetics assay with C18:1 glucosylceramide substrate, glucose detected by HPAEC-PAD; format: biochemical
Protocol: Sonication was used to achieve a consistent substrate preparation. A sonicator was pre-set to 60% AMPL and 5 minutes. A 4 oz. amber bottle of substrate dilution buffer (4 mM taurocholic acid, 0.2% v/v oleic acid in citrate/phosphate buffer pH 5.0) was placed in the noise isolation chamber and the sonicator probe was immersed into the solution. The substrate dilution buffer was sonicated at 60% AMPL for 5 minutes. Following sonication, the noise isolation chamber was opened. A second cycle of sonication at 60% AMPL for 5 minutes was initiated while the amber bottle was gently swirled. After 5 minutes, the substrate dilution buffer was cloudy. Approximately 15-20 mg of C18:1 glucosylceramide was weighed in a clean 2 oz. amber bottle. Sonicated substrate dilution buffer was added to bring the concentration of C18:1 glucosylceramide to 0.64 mg/mL (approximately 880 μM). Next, the same sonication steps were repeated for the 2 oz. amber bottle of 880 μM C18:1 glucosylceramide, with the additional consideration that, prior to the step of gently swirling the bottle while sonicating, it was ensured that all substrate particles were in the biphasic mixture. Sonication and swirling were continued until there were no visible particles in the mixture.
After the sonication procedure, two stocks were prepared for use in the assay. A first reagent reservoir filled with sonicated substrate dilution buffer. A second reagent reservoir was filled with 6 mL sonicated substrate dilution buffer and 2 mL of the 880 μM C18:1 glucosylceramide (final substrate concentration of 220 μM C18:1 glucosylceramide).
A dilution series of substrate was prepared in a 96-well plate having columns 1-12, rows A-H, and a well volume of 0.5 mL. Each well of rows A-G was filled with 170 μL substrate dilution buffer. In addition, 200 μL substrate solution of different concentrations were transferred to the appropriate wells of rows A to G according to Table 2. Substrate dilution buffer and substrate solution were mixed by pipetting.
Frozen experimental and assay control samples were thawed in a 37° C. water bath for <5 min. In the present examples, the sample is a sample of enzyme. After thawing, each tube was placed on ice. Dilutions of the samples were then prepared at room temperature. To prepare the sample dilutions, sample dilution buffer (50 mM citrate buffer pH 6.0, 0.75 mg/ml BSA) was placed on ice in centrifuge tubes, each tube containing 990 μL sonicated sample dilution buffer. Tubes of sample dilution buffer were briefly vortexed (1-3 seconds) and pulse centrifuged to collect the liquid to the bottom of the tube. A 10 μL aliquot of each sample was transferred into a dedicated tube of sample dilution buffer to prepare a 1:100 dilution. Samples were diluted in triplicate. Samples were briefly vortexed to ensure proper mixing. Next, a 10 μL aliquot of each of 1:100 diluted sample was transferred to a dedicated second tube having been preloaded with 990 μL sample dilution buffer, resulting in a 1:10,000 dilution. Samples were briefly vortexed to ensure proper mixing. Next, the 1:10,000 dilution was used to prepare a 1 mL dilution having a final concentration of 0.02 ng/μL. In particular, the volume of the 1:10,000 dilution needed to dilute the enzyme to 0.02 ng/μL in 1 mL was determined and transferred from the second tube into the a third dedicated tube preloaded with an amount of sample dilution buffer calculated to result in a total volume of 1 mL at 0.02 ng/μL. Accordingly, when 10 μL of 0.02 ng/μL enzyme is mixed with 100 μL of substrate solution, the final concentration of enzyme is 0.0290 nM, assuming a monomer with a relative molecular mass of 62.8 kDa. Samples were briefly vortexed to ensure proper mixing. Final dilution tubes were placed on ice.
Briefly, velaglucerase alfa was incubated with C18:1 glucosylceramide at eight concentrations of substrate (2.70-200 μM) and in 110 μL reactions for 20 min at 37° C. with appropriate standards and/or controls. […]

[2] = Velaglucerase activity at varying levels of sodium taurocholate; format: biochemical; settings: range tested 2 mM to 25 mM sodium taurocholate
Protocol: Assays of velaglucerase activity were carried out in the presence of varying levels of sodium taurocholate or oleic acid. Sodium taurocholate is an anionic detergent that has been, in some cases, used to facilitate lipid-based substrate solubility in aqueous environments. The effect of sodium taurocholate was examined over a concentration range of 2 mM to 25 mM (FIG. 6).

[3] = Photo Stress (forced degradation, oxidation by light exposure)

optimal concentration of sodium taurocholate [2]: 6.5 mM | sodium taurocholate concentration above which activity gradually declined [2]: above 8 mM
B1: velaglucerase: recombinant form of glucocerebrosidase approved as long-term enzyme replacement therapy for Gaucher disease (SEQ ID NO: 1) (protein)
chain: ARPCIPKSFGYSSVVCVCNATYCDSFDPPTFPALGTFSRYESTRSGRRMELSMGPIQANHTGTGLLLTLQPEQKFQKVKGFGGAMTDAAALNILALSPPAQNLLLKSYFSEEGIGYNIIRVPMASCDFSIRTYTYADTPDDFQLHNFSLPEEDTKLKIPLIHRALQLAQRPVSLLASPWTSPTWLKTNGAVNGKGSLKGQPGDIYHQTWARYFVKFLDAYAEHKLQFWAVTAENEPSAGLLSGYPFQCLGFTPEHQRDFIARDLGPTLANSTHHNVRLLMLDDQRLLLPHWAKVVLTDPEAAKYVHGIAVHWYLDFLAPAKATLGETHRLFPNTMLFASEACVGSKFWEQSVRLGSWDRGMQYSHSIITNLLYHVVGWTDWNLALNPEGGPNWVRNFVDS
Km ([1]; Baseline (unstressed control)): 4.9 µM | kcat ([1]; Baseline (unstressed control)): 90.7 s⁻¹ | Km [1, 3]: 6.7 µM | kcat [1, 3]: 76.8 s⁻¹ | change in kcat, stressed sample vs baseline ([1]; photo stress vs unstressed control): clear decrease | change in Km, stressed sample vs baseline ([1]; photo stress vs unstressed control, not considered significant): minor increase
